Values of other authors as cited in patent US20240199736A1, “COMBINATION THERAPY INVOLVING ANTIBODIES AGAINST CLAUDIN 18.2 FOR TREATMENT OF CANCER” (ASTELLAS PHARMA INC., priority 2021, published 2024).

Assays:
[1] = biological target: first extracellular domain (ECD1) of CLDN18.2 (Homo sapiens, UniProt P56856)
[2] = biological target: splice variant 1 of Claudin 18 (CLDN18.1) (Homo sapiens, UniProt P56856)

Recognition of ECD1 of CLDN18.2 [1]: high affinity and specificity | Binding to other claudin family members including CLDN18.1 [2]: does not bind
Substance: IMAB362: chimeric IgG1 antibody directed against CLDN18.2; heavy chain SEQ ID NO: 51, light chain SEQ ID NO: 24
